Drawing on patent publication US20230383007A1 (BIOSION, published 2023), this text covers IC50 for two molecules.

The target of assay [1] is T1, human TROP2-his protein (human, UniProt P09758 27-274).
T1 construct: also called biotin labeled human TROP2-his protein
T1 sequence: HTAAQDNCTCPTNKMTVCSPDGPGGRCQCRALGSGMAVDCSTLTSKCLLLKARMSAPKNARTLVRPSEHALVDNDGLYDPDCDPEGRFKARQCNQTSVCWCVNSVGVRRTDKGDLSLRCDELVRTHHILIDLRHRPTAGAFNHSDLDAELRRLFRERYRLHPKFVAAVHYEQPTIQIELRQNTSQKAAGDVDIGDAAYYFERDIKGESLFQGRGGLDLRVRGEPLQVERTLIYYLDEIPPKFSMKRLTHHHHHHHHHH
The assay is described as follows: competitive ELISA: soluble benchmark pre-mixed with biotin labeled human TROP2-his, added to plate coated with the benchmark (self-competition); unit taken from the x axis (ng/mL). The method, then: (§1) The anti-TROP2 antibodies were tested for their epitope binding in a competitive ELISA assay. Briefly, 100 μl of the benchmark at 1 μg/mL in PBS was coated on 96-well micro plates for 2 hours at 37° C. ELISA plates were washed once with wash buffer (PBS+0.05% v/v Tween-20, PBST) and then blocked with 200 μl blocking buffer (5% w/v non-fatty milk in PBST) for 2 hours at 37° C. While blocking, the anti-TROP2 antibodies of the disclosure or controls were diluted with biotin labeled human TROP2-his protein (SEQ ID NO: 16, 34 ng/mL in 2.5% w/v non-fatty milk in PBST), starting at 80 nM with a 5-fold serial dilution, and incubated at room temperature for 40 minutes. After plate washing 4 times, the antibody/TROP2-his protein mixtures were added to benchmark coated plates, 100 μl per well. After incubation at 37° C. for 40 minutes, plates were washed 4 times again using wash buffer. Then the plates were added and incubated with 100 μl Peroxidase Streptavidin (1:10000 dilution in PBST buffer, Jackson Immunoresearch, Cat #016-030-084) for 40 minutes at 37° C. Plates were washed again using wash buffer. […] The absorbance of each well was read on a microplate reader using dual wavelength mode with 450 nm for TMB and 630 nm as the reference wavelength, and the OD (450-630) values were plotted against antibody concentration. Data was analyzed using Graphpad Prism software and IC₅₀ values were reported.

The target of assay [2] is T1, human TROP2-his protein. The assay is described as follows: competitive ELISA: antibody pre-mixed with biotin labeled human TROP2-his, added to plate coated with the benchmark (sacituzumab analog); unit taken from the x axis (ng/mL). The method, then:
as §1
In general terms: ELISA stands for enzyme-linked immunosorbent assay.

Assay [3] concerns the target T1, human TROP2-his protein. Nature of the assay: competitive ELISA: antibody pre-mixed with biotin labeled human TROP2-his, added to plate coated with the benchmark (sacituzumab analog); unit taken from the x axis (nM).

B1: sacituzumab (benchmark, an analog of sacituzumab, in house made) (antibody, human IgG1, kappa, V domains shown)
VH: SVQLQQSGSELKKPGASVKVSCKASGYTFTNYGMNWVKQAPGQGLKWMGWINTYTGEPTYTDDFKGRFAFSLDTSVSTAYLQISSLKADDTAVYFCARGGFGSSYWYFDVWGQGSLVTVSS
VL: DIQLTQSPSSLSASVGDRVSITCKASQDVSIAVAWYQQKPGKAPKLLIYSASYRYTGVPDRFSGSGSGTDFTLTISSLQPEDFAVYYCQQHYITPLTFGAGTKVEIKR
notes: also called BM; BM1
Consider B1, for which the IC50 (in general, the concentration that gives 50% inhibition) in assay [1] turned out to be 0.0543 µg/mL.

B2: single domain antibody 01-9F (VHH)
VHH: QVQLVESGGGSVQAGGSLRLSCVVSGLPYERYCVAWFRQGPGKEREGVARILSDGTTSYSDSVKGRFTISKDNAKNTLYLQMNSLKSEDTATYYCAAEAFRPFTPSDGDCTTVLGIDYWGKGTPVTVSS
For B2, the IC50 in assay [2] is 0.0274 µg/mL; in assay [3] it was 0.247 nM.
